{"source": "patent US5480970A", "about": "“Metal chelators” (Resolution Pharmaceuticals, priority 1993, dated 1996)", "key": {"[1]": {"test": "In vivo biodistribution of Tc-99m chelates in rat inflammation studies", "design": "species or system male Wistar rats", "conditions": "for In vivo Distribution blood: Tc-99m chelate i.v. tail vein, average of two rats, time (min): RP-022 90, RP-043 88, RP-050 109, RP-063 30, RP-065 30, IgG 120, RP-049 not given; for In vivo Distribution GI tract / In vivo Distribution liver / In vivo Distribution kidney / In vivo Distribution urine: Tc-99m chelate i.v.; for In vivo Distribution GI tract / In vivo Distribution liver: time (min): RP-022 90, RP-043 88, RP-050 109, RP-063 30; for In vivo Distribution kidney: time (min): RP-022 90, RP-043 88, RP-050 109, RP-063 30, RP-049 not given; for In vivo Distribution urine: time (min): RP-022 90, RP-043 88, RP-050 109, RP-063 30, RP-065 30", "description": "(§1) Rat inflammation studies were performed as follows. 2 male Wistar rats (Charles River, 150-200 g) were injected intramuscularly with zymosan, a yeast cell wall preparation (5 mg) or virulent E. coli (ATCC 25922, 0.1 ml of 0.5×10^9 organisms/ml) suspension into their left hindlegs 24 hours before imaging. Focal inflammation in the leg was visually detectable after 1 day. 1 mg (ca. 0.7 μMol) of the chelator was dissolved in 50 μL of dimethylsulfoxide and added to an ethanol-water mixture (1:1, 200 μL). An aliquot of Tc-99m tartarate (ca. 400 MBq) was added and transchelation allowed to proceed for 20 min. at 100° C. The Tc-99m chelate was purified by elution through a Sep Pak cartridge. The purified tracer solution was further diluted with saline to prepare an injectable (200 μL) containing about 100 μCi (3.7 MBq) of activity.\n(§2) The rats were anaesthetized with somnitol (40 to 50 mg/kg), and the Tc-99m chelate solution (200 μL) was injected intravenously via the tail vein. Serial whole-body scintigrams were acquired for the first 5 minutes. Subsequently, further images were obtained at 30, 60, and 120 minutes. The rats were then killed with anaesthesia and samples of organs, urine, blood, inflamed muscle (left leg) and non-inflamed muscle (right leg) were weighted and counted in either a well-type gamma counter or in a gamma dose calibrator. The dose calculations were made based on assumption that the rat weighed 200 g and that the blood volume constituted 8% of body weight. Results are averages for two rats and are corrected for the residual dose in the tail."}, "neutrophil receptors": {"system": "neutrophil receptors", "test": "Neutrophil binding assay, competition with tritiated fMLP", "conditions": "competition with 15 nM tritiated fMLP, 10^6 rat neutrophils, 1 hour room temperature", "description": "Rat peripheral neutrophils were prepared for binding assay as follows: blood was obtained by cardiac puncture and anticoagulated with acid- citrate dextrose (ACD) (10%). Red blood cells were removed by sedimentation on hydroxyethyl cellulose (1.1%) for 30 min at room temperature and leukocyte-rich supernatant layered onto 65% percol. […] The remaining neutrophils were resuspended in Hanks Buffered Salt Solution (HBSS) to the desired concentration. Final neutrophil preparation consisted of cells pooled from up to 10 animals, >90% neutrophils and >95% viable by Trypan Blue exclusion.\nBinding affinity of the test peptides was assessed by competing off a constant concentration of tritiated fMLP of known affinity for neutrophil receptors. 10^6 neutrophils were added to polypropylene plates containing 15 nM tritiated fMLP and varying concentrations of unlabelled test peptides in a final volume of 150 μL HBSS. […] Filters were then placed in 6 ml scintillation vials, 5 ml of scintillation fluid added (Ecolume) and vials counted using a liquid scintillation counter. […] Specific binding was the total binding less non-specific binding which was the amount of residual radioactivity bound in the presence of 10 μM unlabelled fMLP."}, "[2]": {"system": "inflamed muscle (left leg), E. coli", "test": "In vivo uptake of Tc-99m chelates in inflamed vs non-inflamed muscle", "design": "species or system male Wistar rats", "conditions": "Inflam agent E. coli; for Inflam muscle / Uninfl muscle: time (min): RP-063 30, RP-056 45, IgG 120, others not given; for Infl:Uninfl: ratio inflamed to uninflamed muscle, time (min): RP-063 30, RP-056 45, IgG 120", "description": "as §1, §2"}}, "note": "Side-chain parts run from the residue outwards. [ ]: non-standard residue; d: D form. The star is where a group is joined. Picolinoyl = O=C(c1ccccn1)*; Nle = CCCC[C@H](N)C(=O)O; Chel = not defined here; Acm = CC(=O)NC*; For = O=C*", "data": [{"substance": "Chel-Gly-Cys(Acm)-Gly-OH (reading uncertain; also: printed as Chel-Gly-Cys(Acm)-Gly-OH) [RP-043, ID NO: 6]", "values": [{"measurement": "In vivo Distribution blood", "setting": "[1]", "value": 1.016, "unit": "% per organ"}, {"measurement": "In vivo Distribution GI tract", "setting": "[1]", "value": 52.619, "unit": "% per organ"}, {"measurement": "In vivo Distribution liver", "setting": "[1]", "value": 0.953, "unit": "% per organ"}, {"measurement": "In vivo Distribution kidney", "setting": "[1]", "value": 4.359, "unit": "% per organ"}, {"measurement": "In vivo Distribution urine", "setting": "[1]", "value": 33.950, "unit": "% per organ"}]}, {"substance": "(Pic-Gly-Cys(Acm)-Gly)-ε-NH-Lys(-Asp-Gly-OH)-Lys-Tyr-Nleu-Phe-Leu- Nleu-for (For-[Nle]LF[Nle]YKK([Gly-Cys(Acm)-Gly-Picolinoyl])DG-OH) [RP-056, ID No. 13]", "values": [{"measurement": "binding affinity for neutrophil receptors", "setting": "neutrophil receptors", "value": "greater binding affinity for neutrophil receptors than native fMLP"}, {"measurement": "Inflam muscle", "setting": "[2]", "value": 0.143, "unit": "% per gm"}, {"measurement": "Uninfl muscle", "setting": "[2]", "value": 0.041, "unit": "% per gm"}, {"measurement": "Infl:Uninfl", "setting": "[2]", "value": 3.52}]}, {"substance": "(Pic-Ser-Cys(Acm)-Gly)-Lys-Pro-Pro-Arg-OH (Picolinoyl-SC(Acm)GKPPR-OH; SMILES CC(=O)NCSC[C@H](NC(=O)[C@H](CO)NC(=O)c1ccccn1)C(=O)NCC(=O)N[C@@H](CCCCN)C(=O)N1CCC[C@H]1C(=O)N1CCC[C@H]1C(=O)N[C@@H](CCCNC(=N)N)C(=O)O) [RP-065, ID NO: 10]", "values": [{"measurement": "Inflam muscle", "setting": "[2]", "value": 0.125, "unit": "% per gm"}, {"measurement": "Uninfl muscle", "setting": "[2]", "value": 0.059, "unit": "% per gm"}, {"measurement": "Infl:Uninfl", "setting": "[2]", "value": 2.1}, {"measurement": "In vivo Distribution blood", "setting": "[1]", "value": 3.520, "unit": "% per organ"}, {"measurement": "In vivo Distribution urine", "setting": "[1]", "value": 53.000, "unit": "% per organ"}]}, {"substance": "(Pic-Ser-Cys(Acm)-Gly)-Thr-Lys-Pro-Pro-Arg-OH (Picolinoyl-SC(Acm)GTKPPR-OH; SMILES CC(=O)NCSC[C@H](NC(=O)[C@H](CO)NC(=O)c1ccccn1)C(=O)NCC(=O)N[C@H](C(=O)N[C@@H](CCCCN)C(=O)N1CCC[C@H]1C(=O)N1CCC[C@H]1C(=O)N[C@@H](CCCNC(=N)N)C(=O)O)[C@@H](C)O) [RP-063, ID NO: 9]", "values": [{"measurement": "Inflam muscle", "setting": "[2]", "value": 0.180, "unit": "% per gm"}, {"measurement": "Uninfl muscle", "setting": "[2]", "value": 0.050, "unit": "% per gm"}, {"measurement": "Infl:Uninfl", "setting": "[2]", "value": 3.62}, {"measurement": "In vivo Distribution blood", "setting": "[1]", "value": 6.370, "unit": "% per organ"}, {"measurement": "In vivo Distribution GI tract", "setting": "[1]", "value": 5.080, "unit": "% per organ"}, {"measurement": "In vivo Distribution liver", "setting": "[1]", "value": 3.050, "unit": "% per organ"}, {"measurement": "In vivo Distribution kidney", "setting": "[1]", "value": 4.170, "unit": "% per organ"}, {"measurement": "In vivo Distribution urine", "setting": "[1]", "value": 44.710, "unit": "% per organ"}]}, {"substance": "(Pic-Gly-Cys-Gly)-εNH-Lys(-Gly-OH)-Tyr-Nleu-Phe-Leu-Nleu-for (For-[Nle]LF[Nle]YK([Gly-Cys-Gly-Picolinoyl])G-OH; SMILES CCCC[C@H](NC=O)C(=O)N[C@@H](CC(C)C)C(=O)N[C@@H](Cc1ccccc1)C(=O)N[C@@H](CCCC)C(=O)N[C@@H](Cc1ccc(O)cc1)C(=O)N[C@@H](CCCCNC(=O)CNC(=O)[C@H](CS)NC(=O)CNC(=O)c1ccccn1)C(=O)NCC(=O)O) [RP-022, ID NO: 11]", "values": [{"measurement": "In vivo Distribution blood", "setting": "[1]", "value": 3.036, "unit": "% per organ"}, {"measurement": "In vivo Distribution GI tract", "setting": "[1]", "value": 41.285, "unit": "% per organ"}, {"measurement": "In vivo Distribution liver", "setting": "[1]", "value": 35.26, "unit": "% per organ"}, {"measurement": "In vivo Distribution kidney", "setting": "[1]", "value": 18.82, "unit": "% per organ"}, {"measurement": "In vivo Distribution urine", "setting": "[1]", "value": 8.400, "unit": "% per organ"}]}, {"substance": "(Pic-Gly-Cys(Acm)-Gly)-εNH-Lys(-Gly-OH)-Tyr-Nleu-Phe-Leu-Nleu-for (For-[Nle]LF[Nle]YK([Gly-Cys(Acm)-Gly-Picolinoyl])G-OH) [RP-050, ID NO: 12]", "values": [{"measurement": "binding affinity for neutrophil receptors", "setting": "neutrophil receptors", "value": "greater binding affinity for neutrophil receptors than native fMLP"}, {"measurement": "Infl:Uninfl", "setting": "[2]", "value": 3.17}, {"measurement": "In vivo Distribution blood", "setting": "[1]", "value": 3.436, "unit": "% per organ"}, {"measurement": "In vivo Distribution GI tract", "setting": "[1]", "value": 25.777, "unit": "% per organ"}, {"measurement": "In vivo Distribution liver", "setting": "[1]", "value": 20.866, "unit": "% per organ"}, {"measurement": "In vivo Distribution kidney", "setting": "[1]", "value": 11.470, "unit": "% per organ"}, {"measurement": "In vivo Distribution urine", "setting": "[1]", "value": 14.050, "unit": "% per organ"}]}, {"substance": "Pic-Gly-Cys(Acm)-Gly-OH (Picolinoyl-Gly-Cys(Acm)-Gly-OH; SMILES CC(=O)NCSC[C@H](NC(=O)CNC(=O)c1ccccn1)C(=O)NCC(=O)O) [RP-049, ID NO: 8]", "values": [{"measurement": "Inflam muscle", "setting": "[2]", "value": 0.077, "unit": "% per gm"}, {"measurement": "Uninfl muscle", "setting": "[2]", "value": 0.019, "unit": "% per gm"}, {"measurement": "Infl:Uninfl", "setting": "[2]", "value": 4.24}, {"measurement": "In vivo Distribution blood", "setting": "[1]", "value": 0.187, "unit": "% per organ"}, {"measurement": "In vivo Distribution kidney", "setting": "[1]", "value": 21.700, "unit": "% per organ"}]}]}
